# T1: recombinant human NRP-1 (human, UniProt O14786-2 22-644, limits assumed)
# T1 construct: Coated on a 96-well plate at 200 ng/well; GenBank AAC51759.1 is printed only as the preferred definition of NRP-1; also called Neuropilin-1
# T1 sequence (looked up): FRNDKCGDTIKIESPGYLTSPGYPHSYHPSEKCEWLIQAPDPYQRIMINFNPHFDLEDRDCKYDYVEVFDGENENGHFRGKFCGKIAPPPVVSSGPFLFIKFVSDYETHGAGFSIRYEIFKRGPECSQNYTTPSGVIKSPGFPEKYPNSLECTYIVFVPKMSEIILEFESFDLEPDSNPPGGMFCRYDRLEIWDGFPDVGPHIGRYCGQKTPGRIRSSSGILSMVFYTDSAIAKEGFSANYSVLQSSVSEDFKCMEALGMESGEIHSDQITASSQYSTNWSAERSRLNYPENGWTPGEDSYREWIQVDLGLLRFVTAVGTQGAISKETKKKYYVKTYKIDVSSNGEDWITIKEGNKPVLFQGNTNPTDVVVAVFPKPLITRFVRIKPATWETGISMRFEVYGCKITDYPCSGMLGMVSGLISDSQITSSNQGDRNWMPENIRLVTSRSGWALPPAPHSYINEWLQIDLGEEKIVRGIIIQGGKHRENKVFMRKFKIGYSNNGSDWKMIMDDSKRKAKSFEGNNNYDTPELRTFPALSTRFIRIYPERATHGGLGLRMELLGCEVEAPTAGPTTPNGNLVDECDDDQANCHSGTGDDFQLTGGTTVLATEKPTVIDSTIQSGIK
# B1: H2N-Cys-Leu-Pro-Pro-Arg-OH (peptide)
# peptide: H-CLPPR-OH
# notes: LPPR (active part of A7R) with an added N-terminal Cys; also called CLPPR
# B2: H2N-Cys-Thr-Lys-Pro-Arg-OH (peptide)
# peptide: H-CTKPR-OH
# notes: TKPR (tuftsin) with an added N-terminal Cys; also called CTKPR
# B3: H2N-Cys-Lys-Pro-Arg-Arg-OH (peptide)
# peptide: H-CKPRR-OH
# notes: KPRR (peptide derived from the VEGF-A165 C-terminus) with an added N-terminal Cys; also called CKPRR
# B4: KPRR (peptide derived from the VEGF-A165) (peptide)
# peptide: KPRR
# notes: Parent tetrapeptide without Cys; 5
# B5: LPPR (active part of A7R) (peptide)
# peptide: LPPR
# notes: Parent tetrapeptide without Cys; 3
# Biological target: T1, recombinant human NRP-1
# Assay: chemiluminescence competition: inhibition of (bt)-VEGF-A165 binding to coated NRP-1
# Procedure: The flat bottom surface of a 96-well plate was coated with 100 μL (200 ng/well) recombinant human NRP-1 and incubated overnight at 4° C. Non-specific binding was blocked by the incubation with 0.5% BSA in PBS. 50 μL of peptide dissolved in PBS in range concentrations and 50 μL (400 ng/mL) of human (bt)-VEGF-A₁₆₅ in PBS containing 4 μg/mL of heparin were added respectively. After 2 h incubation at room temperature the plate was washed and treated with streptavidin-horseradish peroxidase conjugate in PBS (1:8000). Chemiluminescence was quantified immediately after addition of 100 μL Chemiluminescent substrate. In a positive control only (bt)-VEGF-A₁₆₅ was present in wells, while, in negative control, wells were not coated by NRP-1. Percentages of inhibition were calculated by the following formula: […]
Molecule,IC50 [µM],fold decrease in IC50 against the sequence without cysteine [fold]
H-Cys-Lys(hArg)-Dab-Oic-Arg-OH (peptide),0.05,100
H-Cys-Lys(hArg)-Dab-ΔPro-Arg-OH (peptide),0.07,100
H-Lys(Cys-hArg)-Dab-Oic-Arg-OH (peptide),0.04,100
H-Lys(Cys-hArg)-Dab-ΔPro-Arg-OH (peptide),0.06,100
B1,17,–
B2,19,–
B3,0.1,–

# Biological target: T1, recombinant human NRP-1
# Assay: competition: inhibition of (bt)-VEGF-A165 binding to coated NRP-1
row,Molecule,IC50 [µM]
1,B4,4.5
2,B5,80

# From patent US20220169677A1 (INSERM INSTITUT NATIONAL DE LA SANTE ET DE LA RECHERCHE …, published 2022)
